Assay [1] addresses T1, FcRn-His6 (UniProt P55899 24-365). Briefly: BLI; pH 6. (In BLI a coated tip is dipped into the sample, and binding shifts an interference pattern.)
Assay [2] concerns the target T1, FcRn-His6. Nature of the assay: BLI; pH 6. The source holds these as a separate data set.

T1 sequence (P55899 24-297, chain 1 of 2): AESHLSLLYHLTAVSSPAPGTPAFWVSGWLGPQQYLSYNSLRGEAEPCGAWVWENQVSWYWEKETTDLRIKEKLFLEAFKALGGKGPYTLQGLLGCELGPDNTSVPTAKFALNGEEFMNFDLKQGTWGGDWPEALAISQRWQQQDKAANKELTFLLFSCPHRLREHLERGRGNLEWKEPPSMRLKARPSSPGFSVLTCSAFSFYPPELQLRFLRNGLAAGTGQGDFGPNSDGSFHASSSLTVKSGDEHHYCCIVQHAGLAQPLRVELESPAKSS
T1 sequence (chain, as listed by the source, chain 2 of 2): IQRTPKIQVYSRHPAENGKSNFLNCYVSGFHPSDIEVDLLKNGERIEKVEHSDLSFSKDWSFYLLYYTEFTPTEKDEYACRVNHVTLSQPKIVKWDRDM

B1: Anti-NKp46 IgG (antibody)
chain 1: QVQLVQSGAEVKKPGSSVKVSCKASGYTFSDYVINWVRQAPGQGLEWMGEIYPGSGTNYYNEKFKAKATITADKSTSTAYMELSSLRSEDTAVYYCARRGRYGLYAMDYWGQGTTVTVSS
chain 2: DIQMTQSPSSLSASVGDRVTITCRASQDISNYLNWYQQKPGKAPKLLIYYTSRLHSGVPSRFSGSGSGTDFTFTISSLQPEDIATYFCQQGNTRPWTFGGGTKVEIK
modifications: In-house soluble FcRn-His6, tag omitted; ectodomain limits from UniProt topology; beta-2-microglobulin is not named in the paper and is added by convention as the obligate light chain; check residues are not from the paper; N-glycosylated
For the molecule B1, in the assay with FcRn-His6 [1], the koff (in general, a measure of how fast the partners let go of each other) was found to be 0.0685 s⁻¹. The equilibrium dissociation constant (Kd) (commonly the constant that tells how readily two partners part at equilibrium) with FcRn-His6 [2] came out at 361 nM.

The values above are taken from article PMC10628450 (2023).
